# Assay results as given in patent US20100286027A1, “ANTI-BACTERIAL COMPOSITIONS” (priority 2008, published 2010).
# Columns and labels:
# [1] = test system: lawn of the indicated bacteria; experiment: Agar diffusion assay; settings: FIG. 11 Panel D; 0.5 mg/ml in sterile PBS per well
# [2] = test system: B. subtilis; experiment: Membrane polarity, DiBAC4 uptake by flow cytometry; settings: FIG. 11 Panels B and C; 5×10^5 bacteria in 100 μL, 2 hours at 37° C.
# [3] = test system: S. aureus; experiment: Bacterial growth inhibition (FIG. 14, FIG. 16); type: cell-based, Staphylococcus aureus
# Description: Values shown are relative to controls incubated in the absence of LRR domains (100%).
# This inhibition was unaffected by the co-administration of MDP, LPS, or PGN.
# [4] = test system: Escherichia coli (25922); experiment: BacTiter-Glo bacterial ATP content viability assay; settings: gram −, +/− SD, n = 3, >100 = activity detected but <50% inhibition
# [5] = test system: Staphylococcus aureus (29213); experiment: BacTiter-Glo bacterial ATP content viability assay
# [6] = test system: Streptococcus pneumoniae (ATCC 49619); experiment: Gentamycin protection assay in stable 293 cell lines; settings: 293 cells stably expressing the protein, infected with S. pneumoniae at MOI 10:1, versus control cells
# [7] = test system: gram-positive and gram-negative anaerobic bacteria; experiment: MIC against panel of anaerobic bacteria, comparison with ciprofloxacin; type: cell-based; settings: against all the anaerobic bacteria tested; molecular weights ~30000 da and 386 da
# [8] = test system: H. influenzae NB65027; settings: aerobic gram negative
# [9] = test system: Salmonella choleraesuis (13076); experiment: BacTiter-Glo bacterial ATP content viability assay; settings: gram −, +/− SD, n = 3, >100 = activity detected but <50% inhibition
# [10] = test system: Bacillus Subtilis (6633); experiment: BacTiter-Glo bacterial ATP content viability assay; settings: Bacillus Subtilis (6633), gram +; +/− SD, n = 3; >100 = activity detected but <50% inhibition
# [11] = test system: Staphylococcus aureus; experiment: Competition assay of Nod2 LRR activity against S. aureus; type: cell-based; settings: then live S. aureus
# Description: FIG. 6: Purified Nod2 LRR domains (Nod2: 30 microgram/ml) were preincubated with 200 microgram/ml of the indicated bacterial component prior to addition to Staphylococcus aureus. BSA was added as a protein control. Commercial […] extracts (sPGN: soluble […], iPGN: insoluble proteoglycan), lipoteichoic acid (LTA: crude lipoteichoic acid extract, upLTA: ultrapure lipoteichoic acid extract), or heat-killed S. aureus (HKSA) were used. Control indicates bacterial growth in the presence of BSA only.
# If this interaction was the initiating factor for the Nod2 LRR antimicrobial effects, preincubating the domains with bacterial components containing this motif would be expected to inhibit the antibacterial activity. A competition assay was set up using Nod2 LRR activity against S. aureus. The recombinant LRR domains or BSA (control) were preincubated with various components of the S. aureus membrane prior to addition to live S. aureus and the bacterial viability assessed as in Table 1 above (FIG. 6).
# [12] = test system: Clostridium perfringens NB95001; type: cell-based; settings: anaerobic
# [13] = test system: P. aeruginosa NB52020* (mexAB/oprM efflux pump mutant); experiment: MIC against aerobic gram negative bacteria, efflux pump mutant; type: cell-based, Pseudomonas aeruginosa; settings: aerobic gram negative; P. aeruginosa NB52020*, mexAB/oprM efflux pump mutant strain
# [14] = test system: Bacteroides fragilis NB85001; experiment: MIC against anaerobic bacteria; type: cell-based
# [15] = test system: Klebsiella pneumoniae (700603); experiment: BacTiter-Glo bacterial ATP content viability assay; settings: gram −, +/− SD, n = 3, >100 = activity detected but <50% inhibition
# [16] = test system: E. coli; experiment: Membrane polarity, DiBAC4 uptake by flow cytometry; settings: FIG. 11 Panel A; 5×10^5 bacteria in 100 μL, 2 hours at 37° C.
# [17] = test system: H. influenzae NB65027-CDS0021* (TolC efflux pump mutant); experiment: MIC against aerobic gram negative bacteria, efflux pump mutant; type: cell-based, Haemophilus influenzae; settings: aerobic gram negative; H. influenzae NB65027-CDS0021*, TolC efflux pump mutant strain
# [18] = test system: L. monocytogenes; experiment: Bacterial growth inhibition (FIG. 15); type: cell-based, Listeria monocytogenes; settings: FIG. 15 Panel C
# [19] = test system: Eubacterium lentum NB94001; experiment: MIC against anaerobic bacteria; type: cell-based
# [20] = test system: Fusobacterium nucleatum NB86006; experiment: MIC against anaerobic bacteria; type: cell-based
# [21] = test system: Stenotrophomonas maltophilia (17666); experiment: BacTiter-Glo bacterial ATP content viability assay; settings: gram −, +/− SD, n = 3, >100 = activity detected but <50% inhibition
# [22] = test system: Enterococcus faecalis (29212); experiment: BacTiter-Glo bacterial ATP content viability assay; settings: Enterococcus faecalis (29212), gram +; +/− SD, n = 3; >100 = activity detected but <50% inhibition
# [23] = test system: Prevotella intermedia NB88001; experiment: MIC against anaerobic bacteria; type: cell-based
# [24] = test system: Escherichia coli (8739); experiment: BacTiter-Glo bacterial ATP content viability assay; settings: gram −, +/− SD, n = 3, >100 = activity detected but <50% inhibition
# [25] = test system: Pseudomonas aeruginosa (27853); experiment: BacTiter-Glo bacterial ATP content viability assay; settings: gram −, +/− SD, n = 3, >100 = activity detected but <50% inhibition
# [26] = test system: Listeria monocytogenes (7644); experiment: BacTiter-Glo bacterial ATP content viability assay; settings: Listeria monocytogenes (7644), gram +; +/− SD, n = 3; >100 = activity detected but <50% inhibition
# [27] = test system: Peptostreptococcus anaerobius NB97001; experiment: MIC against anaerobic bacteria; type: cell-based
molecule,measurement,setting,value
"Nod2: purified recombinant LRR domain of Nod2 expressed in E. coli; human NOD2-LRR is SEQ ID NO: 3; ~30000 da (protein, listed as Homo sapiens, purified recombinant LRR domain of Nod2 expressed in E. coli; ~30000 da) PAAPGEAKSVHAMPGFIWLIRSLYEMQEERLARKAARGLNVGHLKLTFCSVGPTECAALAFVLQHLRRPVALQLDYNSVGDIGVEQLLPCLGVCKALYLRDNNISDRGICKLIECALHCEQLQKLALFNNKLTDGCAHSMAKLLACRQNFLALRLGNNYITAAGAQVLAEGLRGNTSLQFLGFWGNRVGDEGAQALAEALGDHQSLRWLSLVGNNIGSVGAQALALMLAKNVMLEELCLEENHLQDEGVCSLAEGLKKNSSLKILKLSNNCITYLGAEALLQALERNDTILEVWLRGNTFSLEEVDKLGCRDTRLLL",anti-bacterial activity by agar diffusion assay,[1],Anti-bacterial activity
same,membrane polarity of B. subtilis (depolarised bacteria taking up DiBAC4),[2],influence
same,growth of S. aureus,"[3]; FIG. 14 Panel B, increasing concentrations, relative to controls (100%)",inhibits the growth
same,"effect of co-administration of MDP, LPS, or PGN on inhibition of S. aureus growth",[3]; FIG. 16,unaffected
same,growth of S. aureus,[3]; FIG. 16,inhibited the growth
same,"antibacterial activity by bacterial ATP content (IC50), [LRR domain]",[4],>100 microgram/ml
same,antibacterial activity on S. aureus viability under bacterial stress,"[5]; FIG. 13, ATP-coupled luminescent assay at 35° C., 37° C. and 39° C.",increased with bacterial stress
same,"antibacterial activity by bacterial ATP content (IC50), [LRR domain]","[5]; Staphylococcus aureus (29213), gram +, +/− SD, n = 3, >100 = activity detected but <50% inhibition",6.0 +/− 4.0 microgram/ml
same,number of gentamycin-protected intracellular bacteria,[6],drastically reduced
same,potency relative to ciprofloxacin on a molar (mmoles/ml) basis,[7],25-200 times
same,minimal inhibitory concentration (MIC),[8],>128 microgram/ml
same,"antibacterial activity by bacterial ATP content (IC50), [LRR domain]",[9],None detected
same,"antibacterial activity by bacterial ATP content (IC50), [LRR domain]",[10],3.9 +/− 0.6 microgram/ml
same,inhibition of antibacterial effect by preincubation with heat-killed S. aureus,[11]; Nod2 30 microgram/ml preincubated with 200 microgram/ml HKSA,Only heat-killed S. aureus was capable of inhibiting
same,inhibition of antibacterial effect by preincubation with proteoglycan or lipoteichoic acid,[11]; Nod2 30 microgram/ml preincubated with 200 microgram/ml bacterial component,"Neither S. aureus proteoglycan containing the MDP motif, nor lipoteichoic acid inhibited"
same,minimal inhibitory concentration (MIC),[12],4 microgram/ml
same,minimal inhibitory concentration (MIC),[13],>128 microgram/ml
same,minimal inhibitory concentration (MIC),[14],4 microgram/ml
same,"antibacterial activity by bacterial ATP content (IC50), [LRR domain]",[15],None detected
same,membrane polarity of E. coli (depolarised bacteria taking up DiBAC4),[16],influence
same,minimal inhibitory concentration (MIC),[17],4 microgram/ml
same,L. monocytogenes growth,[18],inhibited
same,minimal inhibitory concentration (MIC),[19],8 microgram/ml
same,minimal inhibitory concentration (MIC),[20],8 microgram/ml
same,"antibacterial activity by bacterial ATP content (IC50), [LRR domain]",[21],None detected
same,"antibacterial activity by bacterial ATP content (IC50), [LRR domain]",[22],6.8 +/− 1.6 microgram/ml
same,minimal inhibitory concentration (MIC),[23],4 microgram/ml
same,"antibacterial activity by bacterial ATP content (IC50), [LRR domain]",[24],>100 microgram/ml
same,"antibacterial activity by bacterial ATP content (IC50), [LRR domain]",[25],None detected
same,"antibacterial activity by bacterial ATP content (IC50), [LRR domain]",[26],13.7 +/− 13.0 microgram/ml
same,minimal inhibitory concentration (MIC),[27],2 microgram/ml
